Experimental data as given in the Human Domainome abundance scans (Beltran et al. 2025).
± gives the uncertainty stated by the source.

B1: E3 ubiquitin-protein ligase NEDD4-like, residues 539 to 589; numbered along this chain, Q96PU5 (parent)
chain: KTSLNPNDLGPLPPGWEERIHLDGRTFYIDHNSKITQWEDPRLQNPAITGP
B2: Glucocorticoid receptor, residues 419 to 494; numbered along this chain, P04150 (parent)
chain: KLCLVCSDEASGCHYGVLTCGSCKVFFKRAVEGQHNYLCAGRNDCIIDKIRRKNCPACRYRKCLQAGMNLEARKTK

Variants of: B1
Assay: abundance fitness (aPCA) (normalised: wild type 0, dead -1); higher = more abundant; growth selection in yeast, the domain comes from the species named
Conditions: Homo sapiens

P51E and P51G are within error of each other in abundance fitness: -0.109 ± 0.45 for the first, 0.13 ± 0.21 for the second.

P51R and P51S are within error of each other in abundance fitness: -0.345 ± 0.25 for the first, -0.336 ± 0.12 for the second.

Compared with P51T, P51V is lower in abundance fitness: 0.009 ± 0.18 for the first, -0.65 ± 0.45 for the second.

Variants of: B2
Assay: as above
Conditions: Homo sapiens

R29S and N36E are within error of each other in abundance fitness: -0.056 ± 0.039 for the first, 0.002 ± 0.042 for the second.

First: Q34M
Second: G12L
The abundance fitness of the first is higher: 0.017 ± 0.043 for the first, -0.166 ± 0.034 for the second.

R61I and A10C are within error of each other in abundance fitness: -0.083 ± 0.085 for the first, -0.147 ± 0.056 for the second.

Going from N54T to N69L, the abundance fitness falls from -0.005 ± 0.045 to -0.11 ± 0.036.

E71A and E9Y are within error of each other in abundance fitness: -0.135 ± 0.041 for the first, -0.105 ± 0.072 for the second.

V31C and A30Y are within error of each other in abundance fitness: -0.016 ± 0.054 for the first, -0.102 ± 0.1 for the second.

V25H and K74W are within error of each other in abundance fitness: 0.06 ± 0.069 for the first, -0.017 ± 0.05 for the second.

First: A57W
Second: H14Q
The abundance fitness of the first is lower: -0.669 ± 0.063 for the first, -0.077 ± 0.048 for the second.

N36H and V31R are within error of each other in abundance fitness: -0.042 ± 0.067 for the first, -0.007 ± 0.028 for the second.

L18A and N54H are within error of each other in abundance fitness: 0.097 ± 0.044 for the first, 0.011 ± 0.067 for the second.

L64C and N36K are within error of each other in abundance fitness: 0.025 ± 0.052 for the first, 0.038 ± 0.049 for the second.

K1Y and Y37T are within error of each other in abundance fitness: -0.101 ± 0.083 for the first, -0.084 ± 0.052 for the second.

Going from R52A to K74D, the abundance fitness rises from -0.051 ± 0.04 to 0.19 ± 0.073.

Going from E9W to G33E, the abundance fitness falls from 0.062 ± 0.041 to -0.039 ± 0.052.

R42Q and L4Q are within error of each other in abundance fitness: 0.127 ± 0.049 for the first, 0.047 ± 0.045 for the second.

A57E and L64T are within error of each other in abundance fitness: -0.146 ± 0.039 for the first, -0.074 ± 0.04 for the second.

C13D and R61K are within error of each other in abundance fitness: -0.008 ± 0.069 for the first, -0.017 ± 0.05 for the second.

D48N and N69G are within error of each other in abundance fitness: 0.024 ± 0.091 for the first, -0.047 ± 0.039 for the second.

Going from V5K to G21D, the abundance fitness rises from -1.15 ± 0.32 to -0.009 ± 0.062.

Compared with N69V, Y60G is lower in abundance fitness: -0.049 ± 0.036 for the first, -0.809 ± 0.086 for the second.

Going from N54M to P56C, the abundance fitness rises from -0.064 ± 0.049 to 0.052 ± 0.05.

Going from C58S to V17Q, the abundance fitness rises from -0.697 ± 0.079 to -0.194 ± 0.047.

Compared with L38D, L64S is lower in abundance fitness: 0.102 ± 0.063 for the first, -0.082 ± 0.04 for the second.

K1C and G21M are within error of each other in abundance fitness: -0.14 ± 0.1 for the first, -0.032 ± 0.05 for the second.

D44M and S7D are the same in abundance fitness: 0 ± 0.072 for the first, 0 ± 0.053 for the second.

E9H and E32A are within error of each other in abundance fitness: -0.052 ± 0.075 for the first, -0.166 ± 0.041 for the second.

K53T and D44T are within error of each other in abundance fitness: -0.024 ± 0.046 for the first, -0.023 ± 0.052 for the second.

Going from D48P to E71R, the abundance fitness rises from -0.591 ± 0.075 to -0.095 ± 0.033.

Going from E9S to Q65C, the abundance fitness falls from 0.032 ± 0.036 to -0.111 ± 0.05.

V17K and S7G are within error of each other in abundance fitness: -0.013 ± 0.38 for the first, 0.012 ± 0.034 for the second.

E9L and H14F are within error of each other in abundance fitness: 0.036 ± 0.033 for the first, -0.088 ± 0.11 for the second.

R73S and Y37H are within error of each other in abundance fitness: 0.003 ± 0.037 for the first, -0.117 ± 0.088 for the second.

L18T and H35M are within error of each other in abundance fitness: -0.031 ± 0.058 for the first, 0.018 ± 0.047 for the second.

Going from H35W to A10E, the abundance fitness falls from -0.074 ± 0.039 to -0.287 ± 0.053.

A57C and K76I are within error of each other in abundance fitness: -0.039 ± 0.06 for the first, -0.277 ± 0.28 for the second.

Compared with G33Q, C45V is lower in abundance fitness: -0.017 ± 0.048 for the first, -0.698 ± 0.082 for the second.

H14C and H14E are within error of each other in abundance fitness: -0.128 ± 0.068 for the first, -0.102 ± 0.041 for the second.

I50N and A72W are within error of each other in abundance fitness: -0.018 ± 0.08 for the first, -0.023 ± 0.039 for the second.

Work on G16L yielded an abundance fitness of -0.558 ± 0.05.
